According to US20160194394A1 (GOVERNING COUNCIL OF THE UNIVERSITY OF TORONTO, published 2016):
Read-outs that look alike come from different tables or passages of the source.

What was measured:
[1] = target: T1, FZD7 receptor expressed on cells (full-length) (UniProt O75084 33-574, limits assumed); assay: cell-based or functional assay
[2] = target: T2, recombinant Frizzled receptor 7 (FZD7) cysteine-rich domain (CRD) fused to the Fc region of human IgG (human, UniProt O75084 33-185); assay: competitive ELISA, detected phage-Fab D10
[3] = target: T2, recombinant Frizzled receptor 7 (FZD7) …; assay: competitive ELISA, detected phage-Fab G2
[4] = target: T2, recombinant Frizzled receptor 7 (FZD7) …; assay: ELISA, 10ug/ml (200nM) Fab
Method in brief: (§1)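 Plates coated with 2 ug/ml FZD7-Fc or Fc protein were probed with bacterially expressed purified Fabs for 1 h at room temperature in 0.5% BSA/0.05% Tween20/PBS. Bound Fab detected with anti-FLAG-HRP for 45 min, developed with TMB and acid stop, and read as absorbance at 450 nm; n.t. = not tested.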

[5] = target: T1, FZD7 receptor expressed on cells …; assay: flow cytometry, 200 nM Fab, MDA MB 231
Method in brief: (§2)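 EDTA-harvested MDA MB 231 cells, either FZD7-overexpressing or with endogenous receptor, were blocked in 2% FBS/PBS and stained with Fab for 30 min on ice. Detection used anti-F(ab′)₂-APC (1:1000, 15 min on ice), then 1% paraformaldehyde fixation and flow cytometry. Values are percent of cells in positive gates.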

[6] = target: T2, recombinant Frizzled receptor 7 (FZD7) …; assay: competitive ELISA, detected phage-Fab E4
[7] = target: T2, recombinant Frizzled receptor 7 (FZD7) …; assay: ELISA, 1ug/ml (20nM) Fab
Method in brief: as §1

[8] = target: T2, recombinant Frizzled receptor 7 (FZD7) …; assay: competitive ELISA, detected phage-Fab H1
[9] = target: T2, recombinant Frizzled receptor 7 (FZD7) …; assay: competitive ELISA, detected phage-Fab H3
[10] = target: T2, recombinant Frizzled receptor 7 (FZD7) …; assay: competitive ELISA, detected phage-Fab E8
[11] = target: T2, recombinant Frizzled receptor 7 (FZD7) …; assay: competitive ELISA, detected phage-Fab G6
[12] = target: T2, recombinant Frizzled receptor 7 (FZD7) …; assay: competitive ELISA, detected phage-Fab H10
[13] = target: T2, recombinant Frizzled receptor 7 (FZD7) …; assay: SPR
[14] = target: T2, recombinant Frizzled receptor 7 (FZD7) …; assay: competitive ELISA, detected phage-Fab A1
[15] = target: T1, FZD7 receptor expressed on cells …; assay: flow cytometry, 200 nM Fab, FZD7 over-expression line (MDA MB 231)
Method in brief: as §2

human Fzd8-Fc = target: T3, human Fzd8-Fc; assay: SPR
T3 construct: also called FZD8 ECD; Fzd8 CRD-Fc fusion protein (R&D systems); not shown: exact vendor limits of the CRD construct
T3 chain: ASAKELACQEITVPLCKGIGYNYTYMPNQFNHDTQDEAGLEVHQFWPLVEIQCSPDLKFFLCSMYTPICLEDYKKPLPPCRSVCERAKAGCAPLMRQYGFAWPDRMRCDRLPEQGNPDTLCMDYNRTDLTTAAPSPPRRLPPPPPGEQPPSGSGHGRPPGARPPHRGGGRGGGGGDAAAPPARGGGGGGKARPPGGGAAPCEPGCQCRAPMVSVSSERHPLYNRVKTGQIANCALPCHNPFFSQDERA

human Fzd5-Fc = target: T4, human Fzd5-Fc; assay: SPR
T4 construct: also called FZD5 ECD; Fzd5 CRD-Fc fusion protein (R&D systems); not shown: exact vendor limits of the CRD construct
T4 chain: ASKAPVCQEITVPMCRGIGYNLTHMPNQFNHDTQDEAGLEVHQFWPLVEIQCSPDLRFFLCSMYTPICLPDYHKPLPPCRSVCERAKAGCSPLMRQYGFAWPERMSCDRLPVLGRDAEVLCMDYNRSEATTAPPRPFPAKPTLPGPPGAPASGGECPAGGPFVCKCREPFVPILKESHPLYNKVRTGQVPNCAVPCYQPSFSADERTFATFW

mouse Fzd2-Fc = target: T5, mouse Fzd2-Fc; assay: SPR
T5 construct: also called mFZD2 ECD; Fzd2 CRD-Fc fusion protein (R&D systems); not shown: exact vendor limits of the CRD construct

human Fzd1-Fc = target: T6, human Fzd1-Fc; assay: SPR
T6 construct: also called FZD1 ECD; Fzd1 CRD-Fc fusion protein (R&D systems); not shown: exact vendor limits of the CRD construct

[16] = target: T2, recombinant Frizzled receptor 7 (FZD7) …; assay: SPR; remark: listed apart in the source

T5 sequence (chain, as listed by the source limits assumed): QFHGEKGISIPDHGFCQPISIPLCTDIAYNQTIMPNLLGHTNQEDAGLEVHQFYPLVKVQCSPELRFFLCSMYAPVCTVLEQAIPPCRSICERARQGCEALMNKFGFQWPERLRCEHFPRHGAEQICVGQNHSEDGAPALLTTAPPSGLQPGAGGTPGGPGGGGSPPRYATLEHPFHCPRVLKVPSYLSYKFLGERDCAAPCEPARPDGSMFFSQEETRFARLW
T6 sequence (chain, as listed by the source limits assumed): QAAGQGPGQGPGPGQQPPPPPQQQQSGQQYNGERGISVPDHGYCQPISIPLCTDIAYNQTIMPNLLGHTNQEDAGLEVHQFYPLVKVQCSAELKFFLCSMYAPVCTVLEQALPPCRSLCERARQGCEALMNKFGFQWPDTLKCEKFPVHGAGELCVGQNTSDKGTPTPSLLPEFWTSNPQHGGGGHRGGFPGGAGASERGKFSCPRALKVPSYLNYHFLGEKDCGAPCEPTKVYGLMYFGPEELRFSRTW

decrease in Wnt 3a-induced transcriptional activity (TOP-FLASH luciferase reporter in MDA MB 231 cells, 400 nM Fab) [1]: > 70% | % of Fab phage in presence of 750 nM Fab [2]: 6.8% | % of Fab phage in presence of 750 nM Fab [3]: 7.4% | OD 450 [4]: 3.22 | % population within the positive gate [5]: 99% | % of Fab phage in presence of 750 nM Fab [6]: 20.9% | OD 450 [7]: 3.19 | % of Fab phage in presence of 750 nM Fab [8]: 53.5% | % of Fab phage in presence of 750 nM Fab [9]: 27.7% | % of Fab phage in presence of 750 nM Fab [10]: 7.1% | % of Fab phage in presence of 750 nM Fab [11]: 29.1% | % of Fab phage in presence of 750 nM Fab [12]: 7.4% | Kd [13]: 1.03 nM | koff [13]: 0.000548 s⁻¹ | kon [13]: 533000 M⁻¹ s⁻¹ | % of Fab phage in presence of 750 nM Fab [14]: 21.8% | % population within the positive gate [15]: 93.2% | Kd (human Fzd8-Fc): 2.5 nM | Kd (human Fzd5-Fc): 3.06 nM | Kd (mouse Fzd2-Fc): 0.95 nM | Kd (human Fzd1-Fc): 3.67 nM | Kd [16]: 1.03 nM
B1: Fab H10 (Fab)
chain 1: EVQLVESGGGLVQPGGSLRLSCAASGFNIYYYSMHWVRQAPGKGLEWVASIYSSYSYTSYADSVKGRFTISADTSKNTAYLQMNSLRAEDTAVYYCARSSPGADYGLDYWGQGTLVTVSSASTKGPSVFPLAPSSKSTSGGTAALGCLVKDYFPEPVTVSWNSGALTSGVHTFPAVLQSSGLYSLSSVVTVPSSSLGTQTYICNVNHKPSNTKVDKKVEPKSC
chain 2: DIQMTQSPSSLSASVGDRVTITCRASQSVSSAVAWYQQKPGKAPKLLIYSASSLYSGVPSRFSGSRSGTDFTLTISSLQPEDFATYYCQQWAYGPFTFGQGTKVEIKRTVAAPSVFIFPPSDSQLKSGTASVVCLLNNFYPREAKVQWKVDNALQSGNSQESVTEQDSKDSTYSLSSTLTLSKADYEKHKVYACEVTHQGLSSPVTKSFNRGECGGS
